These results are taken from patent US20220213201A1 (PHARMABCINE, published 2022).

For orientation: Kd means the equilibrium constant for the complex coming apart. Read a low Kd as tighter binding. In general, koff refers to the first-order rate constant of dissociation. The term kon denotes the rate constant with which the complex forms. Lower therefore signals slow association.

Experiment [1] addresses T1, human TIE2-his (Sino Biological, 10700-H08H) (human, UniProt Q02763 23-745).
T1 construct: Bought protein; also called hTIE2-his; hTIE2; not shown: his tag
Briefly: Octet (BLI), antibody fixed on the biosensor, hTIE2-his in solution. The method, then:
(§1) The anti-TIE2 antibody was fixed at the biosensor and tested according to the manufacturer's manual. The binding kinetics at each concentration of human TIE2 and mouse Tie2 were measured to calculate the binding rate constant (kₒₙ), dissociation rate constant (koff), and binding constant (KD) (Table 4).
A general note: Biolayer interferometry detects binding as a change in optical thickness at a sensor tip.

Experiment [2] concerns the target T1, human TIE2-his (Sino Biological, …). Briefly: ELISA, scFv phage on coated hTIE2-his, HRP anti-M13 detection. In general terms: In an ELISA, binding on a coated surface is turned into a signal by an enzyme label.
Experiment [3] has as its target T2, mouse Tie2-his (Sino Biological, 51087-M08H) (mouse, UniProt Q02858 23-743).
T2 construct: Bought protein; also called mTIE2-his; mTie2-his; not shown: his tag
Briefly: ELISA, scFv phage on mouse TIE2 antigen, HRP anti-M13 detection.

The target in experiment [4] is T3, mouse TIE2 overexpressed on CHO-K1 cells (mouse, UniProt Q02858 23-1122).
T3 construct: whole, on cells; also called mTIE2/CHO-K1
Briefly: flow cytometry on mTIE2/CHO-K1 cells, PE anti-human IgG-Fc secondary. The method, then:
(§2) In order to determine the binding to cell-expressing TIE2, the binding to the self-established human/mouse TIE2 overexpressing CHO-K1 cell lines (hTIE2/CHO-K1, mTIE2/CHO-K1) was measured using flow cytometry. Each cell line was maintained and cultured, hTIE2 CHO-K1 was washed with PBS, 5 mM EDTA was added thereto to obtain a cell suspension, and each cell was recovered through centrifugation. A cell suspension of 5×10⁶ cells/mL was prepared using FACS-dedicated buffer (PBS containing 2% FBS, 0.05% sodium azide), and 100 μL of the cell suspension was dispensed into each tube. 100 μL of 2 μg/mL clones was added to each test tube and allowed to stand at 4° C. for 30 minutes to induce cell binding. The cells were washed with 2 mL of FACS buffer, 100 μL of a secondary antibody dilution (1/500, PE-conjugated anti-human IgG-Fc polyclonal antibody fragment, *A80-248PE, Bethyl Laboratories Inc. US) was added thereto, and the resulting mixture was allowed to stand at 4° C. for 20 minutes to perform fluorescent labeling. The cells were washed with 2 mL of FACS buffer and then suspended in 200 μL of FACS buffer. […]
In general terms: Flow cytometry measures light scatter and fluorescence of single cells or particles in a stream.

Experiment [5] has as its target T1, human TIE2-his (Sino Biological, …). Briefly: ELISA, purified IgG on coated hTIE2-his (1 µg/mL), HRP anti-human detection. The procedure: (§3) Whether or not the binding of TIE2 to the ScFv phage clone was maintained in IgG was determined through ELISA. 1 μg/ml of Ag (hTIE2-his: Sino Biological, 10700-H08H; mTIE2-his: Sino Biological, 51087-M08H) was plated at 100 μl/well onto a 96-well plate and incubated at 4° C. overnight. The next day, the cells grown the day before were centrifuged at 3,000 rpm for 10 minutes and stored at 4° C. The plated Ag was washed 3 times with 0.1% TBST and 200 μl of 2% BSA blocking buffer was added thereto, followed by incubation at 25° C. for 2 hours. After blocking was completed, the resulting product was washed 3 times with 0.1% TBST. […] After phage binding, the resulting product was washed 3 times with 0.1% TBST and 100 μl of HRP-conjugated goat anti-human Ab (1:3000, Sino, 11973-MM05) was added thereto, followed by incubation at 25° C. for 1 hour. After reaction, the resulting product was washed 3 times with 0.1% TBST, 100 μl of TMB (BD TMB substrate reagent set * 555214) was added thereto, color was developed for 3 to 5 minutes, 50 μl of a stop solution was added thereto, and then an assay was performed using an ELISA reader.

Experiment [6] concerns the target T2, mouse Tie2-his (Sino Biological, …). Briefly: ELISA, purified IgG on coated mTIE2-his (1 µg/mL), HRP anti-human detection. The method, then: as §3
Experiment [7] concerns the target T4, human TIE2 overexpressed on CHO-K1 cells (human, UniProt Q02763 23-1124).
T4 construct: whole, on cells; also called hTIE2/CHO-K1; hTIE2 CHO-K1
Briefly: flow cytometry on hTIE2/CHO-K1 cells, 2 µg/mL clone, PE anti-human IgG-Fc secondary. The method, then: as §2

The target in experiment [8] is T2, mouse Tie2-his (Sino Biological, …). Briefly: Octet (BLI), antibody fixed on the biosensor, mTie2-His in solution. The method, then:
as §1

T2 sequence (Q02858 23-743 limits assumed, stated change not applied): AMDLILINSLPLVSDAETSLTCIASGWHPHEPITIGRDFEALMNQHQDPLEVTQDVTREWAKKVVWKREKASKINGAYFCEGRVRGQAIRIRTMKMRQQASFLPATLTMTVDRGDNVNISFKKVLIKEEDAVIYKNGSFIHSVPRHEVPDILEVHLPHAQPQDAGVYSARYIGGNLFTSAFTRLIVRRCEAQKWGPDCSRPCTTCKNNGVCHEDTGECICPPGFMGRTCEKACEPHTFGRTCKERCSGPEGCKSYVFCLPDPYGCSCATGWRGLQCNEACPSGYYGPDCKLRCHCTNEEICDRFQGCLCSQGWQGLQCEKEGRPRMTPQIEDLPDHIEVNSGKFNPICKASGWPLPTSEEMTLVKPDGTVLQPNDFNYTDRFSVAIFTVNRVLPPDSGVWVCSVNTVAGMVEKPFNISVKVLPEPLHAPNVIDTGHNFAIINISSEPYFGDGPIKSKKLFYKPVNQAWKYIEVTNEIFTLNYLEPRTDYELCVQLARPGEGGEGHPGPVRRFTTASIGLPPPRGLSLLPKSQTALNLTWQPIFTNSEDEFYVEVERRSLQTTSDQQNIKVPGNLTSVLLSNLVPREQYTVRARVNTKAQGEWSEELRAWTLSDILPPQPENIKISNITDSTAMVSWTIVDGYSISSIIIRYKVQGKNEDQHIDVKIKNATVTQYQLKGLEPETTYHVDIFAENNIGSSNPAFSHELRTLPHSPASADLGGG
T1 sequence (Q02763 23-745 limits assumed): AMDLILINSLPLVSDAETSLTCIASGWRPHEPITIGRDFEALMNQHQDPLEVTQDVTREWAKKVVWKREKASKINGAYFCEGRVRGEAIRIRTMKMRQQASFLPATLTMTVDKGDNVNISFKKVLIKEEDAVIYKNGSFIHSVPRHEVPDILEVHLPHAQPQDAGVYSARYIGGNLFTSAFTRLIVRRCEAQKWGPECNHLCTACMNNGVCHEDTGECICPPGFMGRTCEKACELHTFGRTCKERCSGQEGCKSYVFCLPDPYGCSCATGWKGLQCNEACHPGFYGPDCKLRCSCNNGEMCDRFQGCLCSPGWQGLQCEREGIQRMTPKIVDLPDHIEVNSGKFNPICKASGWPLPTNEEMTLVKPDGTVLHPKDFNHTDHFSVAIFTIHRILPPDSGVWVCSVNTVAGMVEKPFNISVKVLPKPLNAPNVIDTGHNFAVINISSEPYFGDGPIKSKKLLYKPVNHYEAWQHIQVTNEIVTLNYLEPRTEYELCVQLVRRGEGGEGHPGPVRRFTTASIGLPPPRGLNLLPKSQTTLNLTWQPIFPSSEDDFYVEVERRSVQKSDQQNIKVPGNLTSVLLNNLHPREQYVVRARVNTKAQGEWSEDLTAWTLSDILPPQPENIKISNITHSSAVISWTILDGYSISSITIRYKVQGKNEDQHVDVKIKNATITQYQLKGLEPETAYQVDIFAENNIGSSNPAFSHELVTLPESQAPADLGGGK
T4 sequence (Q02763 23-1124): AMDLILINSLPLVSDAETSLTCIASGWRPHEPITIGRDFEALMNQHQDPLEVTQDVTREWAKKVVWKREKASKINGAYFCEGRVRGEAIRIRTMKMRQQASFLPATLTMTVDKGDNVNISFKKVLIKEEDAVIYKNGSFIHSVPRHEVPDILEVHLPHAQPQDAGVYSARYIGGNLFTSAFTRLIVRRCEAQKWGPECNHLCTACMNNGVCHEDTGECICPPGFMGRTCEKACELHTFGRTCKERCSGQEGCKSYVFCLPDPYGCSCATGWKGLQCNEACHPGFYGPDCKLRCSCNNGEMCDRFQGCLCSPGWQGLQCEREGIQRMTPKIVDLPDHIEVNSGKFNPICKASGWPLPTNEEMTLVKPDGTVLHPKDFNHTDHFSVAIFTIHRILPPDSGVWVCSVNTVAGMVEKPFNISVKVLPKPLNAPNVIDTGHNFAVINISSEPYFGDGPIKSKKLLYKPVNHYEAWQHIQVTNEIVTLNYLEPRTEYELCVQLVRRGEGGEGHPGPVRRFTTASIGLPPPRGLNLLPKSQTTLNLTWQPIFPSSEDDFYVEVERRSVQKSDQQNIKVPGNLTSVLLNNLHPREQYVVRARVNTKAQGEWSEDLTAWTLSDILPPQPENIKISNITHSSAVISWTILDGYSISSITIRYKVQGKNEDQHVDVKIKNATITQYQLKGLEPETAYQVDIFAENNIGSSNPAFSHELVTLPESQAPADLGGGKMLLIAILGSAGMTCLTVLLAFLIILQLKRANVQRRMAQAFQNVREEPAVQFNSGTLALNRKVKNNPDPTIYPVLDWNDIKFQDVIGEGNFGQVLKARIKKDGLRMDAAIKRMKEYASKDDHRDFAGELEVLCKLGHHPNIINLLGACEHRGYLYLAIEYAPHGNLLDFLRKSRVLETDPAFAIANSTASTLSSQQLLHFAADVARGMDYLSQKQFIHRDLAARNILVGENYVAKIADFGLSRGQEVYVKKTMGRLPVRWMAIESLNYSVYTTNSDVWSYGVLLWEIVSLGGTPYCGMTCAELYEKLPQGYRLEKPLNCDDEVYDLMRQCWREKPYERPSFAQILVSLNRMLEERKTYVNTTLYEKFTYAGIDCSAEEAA
T3 sequence (Q02858 23-1122): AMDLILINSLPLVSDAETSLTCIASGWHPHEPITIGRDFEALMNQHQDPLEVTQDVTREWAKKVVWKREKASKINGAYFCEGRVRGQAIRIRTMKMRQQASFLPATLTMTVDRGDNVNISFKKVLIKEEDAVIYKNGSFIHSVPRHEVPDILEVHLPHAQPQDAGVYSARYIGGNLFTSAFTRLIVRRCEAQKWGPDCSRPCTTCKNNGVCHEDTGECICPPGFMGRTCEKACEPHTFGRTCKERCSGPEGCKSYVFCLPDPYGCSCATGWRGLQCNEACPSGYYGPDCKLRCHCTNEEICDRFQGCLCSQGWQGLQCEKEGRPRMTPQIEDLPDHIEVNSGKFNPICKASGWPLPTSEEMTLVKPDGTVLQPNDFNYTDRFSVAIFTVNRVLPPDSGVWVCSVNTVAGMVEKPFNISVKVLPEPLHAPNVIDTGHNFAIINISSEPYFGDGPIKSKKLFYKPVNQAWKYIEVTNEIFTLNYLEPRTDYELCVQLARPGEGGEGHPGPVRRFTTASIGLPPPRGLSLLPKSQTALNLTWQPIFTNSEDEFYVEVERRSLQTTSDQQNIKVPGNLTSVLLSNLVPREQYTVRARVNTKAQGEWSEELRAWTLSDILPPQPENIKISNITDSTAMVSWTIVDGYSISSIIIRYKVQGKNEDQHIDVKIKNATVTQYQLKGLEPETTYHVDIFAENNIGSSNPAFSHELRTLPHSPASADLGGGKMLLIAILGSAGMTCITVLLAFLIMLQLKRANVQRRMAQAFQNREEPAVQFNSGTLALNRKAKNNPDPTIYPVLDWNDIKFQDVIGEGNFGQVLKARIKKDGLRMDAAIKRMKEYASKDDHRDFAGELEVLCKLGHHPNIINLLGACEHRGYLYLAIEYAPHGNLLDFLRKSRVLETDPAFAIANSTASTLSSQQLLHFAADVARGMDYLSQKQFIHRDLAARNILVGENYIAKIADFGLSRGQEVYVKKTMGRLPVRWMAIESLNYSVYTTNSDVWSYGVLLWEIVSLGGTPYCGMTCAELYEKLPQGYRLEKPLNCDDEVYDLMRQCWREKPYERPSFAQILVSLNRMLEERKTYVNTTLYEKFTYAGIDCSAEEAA

B1: anti-TIE2 antibody 11F (IgG) (antibody, V domains shown)
VH: QVQLVESGGGVVQPGRSLRLSCSASGFSFSDHAMHWVRQAPGRGLEWVATVWPDGSNKYYVDSVNGRFSISRDNSKNTVSLQMNSLRAEDTAVYYCARDSGPISRGDLTYWGPGVLVTVSS
VL: NFMLTQPHSVSESPGKTVIISCTGSGGSIASNYVQWYQQRPGSAPTIVIYEDDQRPSGVPDRYSGSTDSSSNSASLTISGLRAEDEADYYCQSYDDTNVVFGGGTKLTVLG
notes: also called 11F antibody; No. 6
In experiment [1], B1 came in with a Kd of 2.76 nM, a koff of 0.000152 s⁻¹ and a kon of 55300 M⁻¹ s⁻¹.

B2: 4E2 monoclonal scFv phage (scFv)
chain: QVQLVQSGGGLIQPGGSLRLSCAASGFTFSDYAMHWVRQAPGKGLEWVALISFDGNNQYYADSVKGRFTISRDNSKNTIYLQMNSLRAEDTAVYYCTTDTMSGYDWEDAFDIWGQGTMITVSSDIQMTQSPSSLSASIGDRVTITCRASQSIGRWLAWYQQKPGKAPKLLIYAASSLQSGVPSRFSGSGSGTDFTLTISSLQPEDFATYYCQQSYSTPYTFGQGTKVEIKR
Consider B2, for which, in experiment [2], the “Human ELISA” value worked out at 1.2. For the same molecule, in experiment [3], the “Mouse ELISA” value was 0.4.

B3: anti-TIE2 antibody 3D6 (IgG) (antibody, V domains shown)
VH: QVQLVESGGGLVQPGGSLRLSCIGSGFTFSRYNINWVRQAPGKGLEWVSSISSSGRFIHYAGSVKGRFTVSRDNTKNSVSLQMNSLRAEDTAVYYCARDSPTQGPYYYYGMDVWGQGTTITVSS
VL: SYELTQPPSESVAPGKTATITCGGNKIGSKSVHWYQQKPGQAPLMVIYYDSDRPSGIPERFSGSNSGNTATLTISRVEVGDEADYYCQVWDSSSDRPVFGGGTKLTVLG
notes: also called 3D6 clone
Take B3: the binding result is given as “no binding” in experiment [4], “binds” in experiment [5], “no binding” in experiment [6] and “binds” in experiment [7].

B4: anti-TIE2 antibody 4E2 (IgG) (antibody, V domains shown)
VH: QVQLVQSGGGLIQPGGSLRLSCAASGFTFSDYAMHWVRQAPGKGLEWVALISFDGNNQYYADSVKGRFTISRDNSKNTIYLQMNSLRAEDTAVYYCTTDTMSGYDWEDAFDIWGQGTMITVSS
VL: DIQMTQSPSSLSASIGDRVTITCRASQSIGRWLAWYQQKPGKAPKLLIYAASSLQSGVPSRFSGSGSGTDFTLTISSLQPEDFATYYCQQSYSTPYTFGQGTKVEIKR
notes: also called 4E2 clone
Take B4: in experiment [1], the Kd was less than 0.001 nM, the koff was less than 1e-07 s⁻¹ and the kon worked out at 106000 M⁻¹ s⁻¹. Also, in experiment [8], the affinity, expressed as Kd, was 13.8 nM; the koff stood at 0.00291 s⁻¹; the kon came to 212000 M⁻¹ s⁻¹.

B5: 2F2 monoclonal scFv phage (scFv)
chain: QVQLVESGGGLVQPGGSLRLSCAASGFTFSSYAMTWVRQAPGKGLEWVSRISGSGGSTNYADSVKGRFTISRDNSKNTLYLQMNSLRAEDTAVYYCARGGLHHGFDIWGQGTMVTVSSSYELTQPPSLSVAPGKTARITCDGDNIESKSVHWYQQKPGQAPVLVIYYDNDRPSGIPERFSGSNSGNTATLTISRVEAGDEADYYCQVWDTYTDQPVFGGGTKLTVLG
As to B5, the “Human ELISA” value in experiment [2] came out at 1.9. The “Mouse ELISA” value in experiment [3] was 0.1.

B6: 3D6 monoclonal scFv phage (scFv)
chain: QVQLVESGGGLVQPGGSLRLSCIGSGFTFSRYNINWVRQAPGKGLEWVSSISSSGRFIHYAGSVKGRFTVSRDNTKNSVSLQMNSLRAEDTAVYYCARDSPTQGPYYYYGMDVWGQGTTITVSSSYELTQPPSESVAPGKTATITCGGNKIGSKSVHWYQQKPGQAPLMVIYYDSDRPSGIPERFSGSNSGNTATLTISRVEVGDEADYYCQVWDSSSDRPVFGGGTKLTVLG
In the case of B6, the “Human ELISA” value in experiment [2] came to 2.1. In addition, the “Mouse ELISA” value in experiment [3] is 0.1.

B7: 1A9 monoclonal scFv phage (scFv)
chain: QMQLVQSEAEVKKPGASVKVSCKASGYTFNSYDIHWVRQAPGQGLEWMGVVNPPGGTGSTVYAQKFEDRLTLTTDMSTSTAYMELSSLRSEDTAVYYCARDYNRAPPTLDVWGQGTTITVSSNFMLTQPASVSGSPGQSITISCTGSSSDVGGYNYVSWYQQHPGKAPQLIIYDVTKRPSGVSNRFSGSKSGNSASLTISGLQAEDEADYYCSSYSSSTFYVFGTGTKVTVLG
For B7, in experiment [2], the “Human ELISA” value stood at 2.4. In experiment [3], the “Mouse ELISA” value was 0.

B8: anti-TIE2 antibody 1A9 (IgG) (antibody, V domains shown)
VH: QMQLVQSEAEVKKPGASVKVSCKASGYTFNSYDIHWVRQAPGQGLEWMGVVNPPGGTGSTVYAQKFEDRLTLTTDMSTSTAYMELSSLRSEDTAVYYCARDYNRAPPTLDVWGQGTTITVSS
VL: NFMLTQPASVSGSPGQSITISCTGSSSDVGGYNYVSWYQQHPGKAPQLIIYDVTKRPSGVSNRFSGSKSGNSASLTISGLQAEDEADYYCSSYSSSTFYVFGTGTKVTVLG
notes: also called 1A9 clone
As for B8, the binding result in experiment [5] is listed as “binds”; in experiment [6], “no binding”; in experiment [7] it was “binds”.

B9: anti-TIE2 antibody 2F2 (IgG) (antibody, V domains shown)
VH: QVQLVESGGGLVQPGGSLRLSCAASGFTFSSYAMTWVRQAPGKGLEWVSRISGSGGSTNYADSVKGRFTISRDNSKNTLYLQMNSLRAEDTAVYYCARGGLHHGFDIWGQGTMVTVSS
VL: SYELTQPPSLSVAPGKTARITCDGDNIESKSVHWYQQKPGQAPVLVIYYDNDRPSGIPERFSGSNSGNTATLTISRVEAGDEADYYCQVWDTYTDQPVFGGGTKLTVLG
notes: also called 2F2 clone
Regarding B9, the binding result in experiment [4] is listed as “no binding”. In experiment [1], the affinity, expressed as Kd, was 0.794 nM; the koff stood at 0.000116 s⁻¹; the kon amounted to 146000 M⁻¹ s⁻¹. The binding result in experiment [6] was “no binding”.
